Measured values: IntAct's records for PubMed 30260988

B1: CXXC motif containing zinc binding protein (Homo sapiens), Q9NWV4 (parent)
chain: MGKIALQLKATLENITNLRPVGEDFRWYLKMKCGNCGEISDKWQYIRLMDSVALKGGRGSASMVQKCKLCARENSIEILSSTIKPYNAEDNENFKTIVEFECRGLEPVDFQPQAGFAAEGVESGTAFSDINLQEKDWTDYDEKAQESVGIYEVTHQFVKC
partner: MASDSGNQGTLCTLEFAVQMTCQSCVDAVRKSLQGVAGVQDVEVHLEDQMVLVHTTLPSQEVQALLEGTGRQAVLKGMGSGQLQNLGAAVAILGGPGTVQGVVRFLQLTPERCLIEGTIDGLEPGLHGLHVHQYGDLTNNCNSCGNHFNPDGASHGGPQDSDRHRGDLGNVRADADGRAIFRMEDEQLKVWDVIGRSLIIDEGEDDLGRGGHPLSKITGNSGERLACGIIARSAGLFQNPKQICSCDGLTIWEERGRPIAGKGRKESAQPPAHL

Columns and labels:
[1] = variants of: B1; details: with ccs_human CCS
[2] = variants of: B1; details: with ccs_human CCS; remark: listed apart in the source

Row | effect of a mutation on the interaction [1] | effect of a mutation on the interaction [2] | Variant
1 | disrupting interaction strength | causing an interaction | MGKIALQLKATLENITNLRPVGEDFRWYLKMKCGNCGEISDKWQYIRLMDSVALKGGRGSASMVQKAKLAARENSIEILSSTIKPYNAEDNENFKTIVEFECRGLEPVDFQPQAGFAAEGVESGTAFSDINLQEKDWTDYDEKAQESVGIYEVTHQFVKC [C67A;C70A]
2 | with no effect | causing an interaction | MGKIALQLKATLENITNLRPVGEDFRWYLKMKAGNAGEISDKWQYIRLMDSVALKGGRGSASMVQKCKLCARENSIEILSSTIKPYNAEDNENFKTIVEFECRGLEPVDFQPQAGFAAEGVESGTAFSDINLQEKDWTDYDEKAQESVGIYEVTHQFVKC [C33A;C36A]
